In patent publication US5717058, “Peptide inhibitors of tax-dependent transcription” (Somatogen, Inc.):

Assays:
[1] = target: CREB + Tax (HTLV-I Tax enhances CREB binding) (/ HTLV-I, UniProt P16220;P03409 P16220:1-327,P03409:1-353); assay: EMSA; details: tags: Tax carries C-terminal His6 (TaxH6); label: 32P end-label; cloned into pUC19 Bgl II site, 70 bp Kpn I-Hind III fragment used as probe
CREB = CREB (UniProt P16220 P16220:1-327); assay: EMSA; 3.4 nM CREB, 0.5 nM probe, 10 ng poly dIdC, 75 mM KCl, 6.25 mM MgCl2, room temp; reference without Tax; details: tags: heparin-agarose purified, prepared per Franklin et al. 1993; chain copies: 2; label: 32P end-label; cloned into pUC19 Bgl II site, 70 bp Kpn I-Hind III fragment used as probe
Sequence of CREB (P16220 whole entry, the tested form may be a part, one chain of several): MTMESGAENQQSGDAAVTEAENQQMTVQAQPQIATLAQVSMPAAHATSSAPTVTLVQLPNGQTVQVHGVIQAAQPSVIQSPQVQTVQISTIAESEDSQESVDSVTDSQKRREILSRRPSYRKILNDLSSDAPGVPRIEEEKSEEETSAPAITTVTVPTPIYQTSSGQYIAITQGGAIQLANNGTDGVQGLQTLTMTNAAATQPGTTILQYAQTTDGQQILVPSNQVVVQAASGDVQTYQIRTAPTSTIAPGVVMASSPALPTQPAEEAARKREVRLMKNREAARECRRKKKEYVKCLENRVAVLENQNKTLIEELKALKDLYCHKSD

Sequence of CREB + Tax (HTLV-I Tax enhances CREB binding) (P16220 whole entry, chain 1 of 2, the tested form may be a part): as the sequence (P16220 whole entry, the tested form may be a part, one chain of several) above
Sequence of CREB + Tax (HTLV-I Tax enhances CREB binding) (P03409 whole entry, chain 2 of 2, the tested form may be a part): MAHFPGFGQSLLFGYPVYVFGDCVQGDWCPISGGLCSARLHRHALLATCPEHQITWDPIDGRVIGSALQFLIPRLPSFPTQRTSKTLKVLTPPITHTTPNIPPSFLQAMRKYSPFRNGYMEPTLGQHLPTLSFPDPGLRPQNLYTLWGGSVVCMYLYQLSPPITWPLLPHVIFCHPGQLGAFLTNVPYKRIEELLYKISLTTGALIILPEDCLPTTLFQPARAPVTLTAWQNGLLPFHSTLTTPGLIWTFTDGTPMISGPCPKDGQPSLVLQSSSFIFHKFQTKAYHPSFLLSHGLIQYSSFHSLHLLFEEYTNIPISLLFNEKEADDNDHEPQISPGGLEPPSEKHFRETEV

B1: HTLV-I third 21 bp repeat (site 3 probe) (dsDNA)
DNA 1: GATCTGGCGTTGACGACAACCCCA
DNA 2: TGGGGTTGTCGTCAACGCCAGATC
binding signal [1]: 3.9 fold
binding signal (CREB): 1 fold
